In patent publication US20230212300A1 (REMD BIOTHERAPEUTICS, published 2023):

T1: human endothelin A receptor (ETAR), tagged, stably expressed on recombinant CHO cells (human, UniProt P25101 21-427)
T1 sequence: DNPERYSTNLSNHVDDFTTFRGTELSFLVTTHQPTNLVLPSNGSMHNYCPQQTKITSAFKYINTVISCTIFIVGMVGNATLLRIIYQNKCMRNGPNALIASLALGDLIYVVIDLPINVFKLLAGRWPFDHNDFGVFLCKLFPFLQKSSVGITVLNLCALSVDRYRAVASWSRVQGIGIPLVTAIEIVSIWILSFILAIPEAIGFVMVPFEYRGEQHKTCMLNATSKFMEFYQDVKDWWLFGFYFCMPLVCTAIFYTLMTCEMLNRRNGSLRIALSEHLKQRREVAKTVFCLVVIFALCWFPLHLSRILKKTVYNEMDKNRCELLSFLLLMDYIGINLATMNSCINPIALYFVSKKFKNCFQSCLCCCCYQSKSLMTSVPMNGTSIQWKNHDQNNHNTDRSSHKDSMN


Target: T1, human endothelin A receptor (ETAR), …
Assay: cell-based or functional assay

| HuET AR Binding IC50 (nM); IP1 assay (IP-one-Gq kit, HTRF 665/620) with 25.0 nM ET-1 | Binder |
| --- | --- |
| 0.0607 nM | murine mAb 336D8G9 (antibody, V domains shown) VH: EVQLQQSGAELVRPGASVKLSCPASGFTIKDYYIHWVKQRPEQGLEWIGRIDPEDGDTEYAPKFQGKATMTADTSSNTAYLHLSSLTSEDTAVYYCTSNWYSNSYWGQGTTLTVSS VL: DVVMTQTPLSLPVSLGDQASISCRSSQSLVHSNGNTYLHWYLQKPGQSPKVLIYKVSNRFSGVPDRFSGSGSGTDFTLKISRVEAEDLGVYFCSQSTHVPYTFGGGTKLEIK |
| 0.0891 nM | murine mAb 312A10E5 (antibody, V domains shown) VH: QIQLVQSGPDLKKPGETVKISCKASGYTFTNYGMSWVKQAPGKGLKWMGWINTYSGESTYADDFKGRFAFSLETSASTAYLQINNLKNEDTATYFCARSLNRDTWFTYWGQGTLVTVSA VL: QAVVTQESALSTSPGETVTLTCRSITGAVTTSNYANWVQEKPDHLFTGLIGGTNNRAPGVPARFSGSLIGDKAALTITGAQTEDEAIYFCALWYSNHWVFGGGTKLTVL |
